Laboratory results taken from paper PMC2716403 (Journal of molecular biology, 2009).
Like-named read-outs stand apart in the source and are kept apart here.

Experiments:
Assay in all cases: ITC
[1] = target: T1, RanGDP (wild-type Ran, GDP-bound) (Rattus norvegicus, UniProt P62828 1-216)
[2] = target: T1, RanGDP (wild-type Ran, GDP-bound); remark: listed apart in the source
[3] = target: RanGDP (wild-type Ran, GDP-bound) (Rattus norvegicus, UniProt P62828 1-216); remark: listed apart in the source

Binder | Kd [1] [µM] | Kd [2] [µM] | other results
AGSSWQCDTCLLQNKVTDNKCIACQAAKL (domain or fragment) [Nup153-ZnF1] | 6 | – | –
GTWDCDTCLVQNKPEAVKCVACETPKPG (domain or fragment) [Nup153-ZnF2] | – | 49 | –
VGSWECPVCCVSNKAEDSRCVSCTSEKP (domain or fragment) [Nup153-ZnF3] | 7 | – | –
GSWDCEVCLVQNKADSTKCIACESAKPGTKSEFKGFGT (domain or fragment) [Nup153-ZnF4] | – | 47 | –
Nup358-ZnF12 (domain or fragment) KEGSWWHCNSCSLKNASTAKKCVSCQNLNPSNKELVGPPLAETVFTPKTSPENVQDRFALVTPKKEGHWDCSICLVRNEPTVSRCIACQNTKSA | – | 15 | –
GPLGSGSWQCEVCLVQNKADSTKCIACESAKPGTKSEFKGFGT (domain or fragment) [Nup153-ZnF4D8Q] | – | – | Kd [3]: 3 µM
